Results taken from PMC3978581.

How the values were obtained:
[1] = biological target: Human prolactin receptor, endogenous on human breast cancer cell lines (human (endogenous in T47D, SKBR3, MDA-MB-468, MCF-7, BT474)) (UniProt P16471)
[2] = biological target: Human prolactin receptor, endogenous on human breast cancer cell lines (human (endogenous in T47D, SKBR3, MDA-MB-468, MCF-7, BT474)) (UniProt P16471); remark: listed apart in the source

UniProt P16471, sequence (P16471 25-622, stated change not applied): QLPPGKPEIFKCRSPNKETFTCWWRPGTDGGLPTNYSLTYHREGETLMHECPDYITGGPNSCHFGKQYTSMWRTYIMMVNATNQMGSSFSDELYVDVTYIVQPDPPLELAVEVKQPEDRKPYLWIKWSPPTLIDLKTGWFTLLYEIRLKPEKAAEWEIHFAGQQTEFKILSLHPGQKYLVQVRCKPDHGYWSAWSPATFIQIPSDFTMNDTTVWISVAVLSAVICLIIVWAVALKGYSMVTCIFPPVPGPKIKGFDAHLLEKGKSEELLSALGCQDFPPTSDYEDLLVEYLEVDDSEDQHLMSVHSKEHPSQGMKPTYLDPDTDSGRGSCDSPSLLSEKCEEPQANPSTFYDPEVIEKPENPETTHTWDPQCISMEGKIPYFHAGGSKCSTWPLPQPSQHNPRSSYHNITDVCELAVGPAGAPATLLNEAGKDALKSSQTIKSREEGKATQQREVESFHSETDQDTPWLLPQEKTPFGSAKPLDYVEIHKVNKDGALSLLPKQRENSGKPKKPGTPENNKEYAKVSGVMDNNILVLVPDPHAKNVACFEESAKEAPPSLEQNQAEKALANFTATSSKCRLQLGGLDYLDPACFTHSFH

EC50 of prolactin (1 to 100 nM, 15 min) for Stat5 tyrosine phosphorylation in SKBR3 cells at pHe 6.8 [1]: 119 nM
EC50 of prolactin (1 to 100 nM, 15 min) for Stat5 tyrosine phosphorylation in SKBR3 cells at pHe 7.4 [1]: 3.3 nM
EC50 of prolactin (1 to 100 nM, 15 min) for Stat5 tyrosine phosphorylation in T47D cells at pHe 6.8 [1]: 37.8 nM
EC50 of prolactin (1 to 100 nM, 15 min) for Stat5 tyrosine phosphorylation in T47D cells at pHe 7.4 [1]: 3.7 nM
loss of prolactin-stimulated Stat5 and Erk phosphorylation in T47D and SKBR3 cells over pHe 7.4 to 6.6; percent diminished at pHe 6.8 against pHe 7.4 [2]: > 80%
Substance: Recombinant human prolactin (from UniProt P01236 29-227) (ligand)
